# Results as given in US20040152079A1.
# Molecular target: PMN receptor for mini TyrRS (on human PMNs) (human)
# Experiment: competition with ^125I-mini TyrRS on human PMNs (FIG. 10)
substance,measurement,value
S. cerevisiae TyrRS (from UniProt P36421 1-394) (enzyme),fold of the dissociation constant against human mini TyrRS,< 200 fold
